Results published in PMC3265130 (2011).

Target: T1, H3(1-15Y)K9me3 (Homo sapiens, H3K9me3)
T1 chain: ARTKQTARKSTGGKAY
Test: ITC

- Kd: 300 nM
B1: Su(Var)205 17-76 (protein)
chain: not shown
